# Laboratory results: the supplement of paper PMC7125110
# ± gives the standard error. For some of these results: Fewer inactive variants are shown than the library holds.
# B1: glmS ribozyme (parent)
# chain: AUAAAAGCGCCAGAACUACAGAAAUGUAGUUGACGAGGAGGAGGUUUAUCGAAUUUUCGGCGGAUGCCUCCAAA
# Legend:
# Conditions in all cases: with glucosamine-6-phosphate
# glucosamine-6-phosphate [1] = variants of: B1; experiment: kcat; higher = faster cleavage; RNA array
# Procedure, shortened: (§1)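 On sequenced MiSeq chips, barcoded ribozyme variants were made in situ by E. coli RNA polymerase and followed at 37 °C through a hybridised Cy3 probe. Glucosamine-6-phosphate was flowed in at 40 μM to 10 mM in HEPES/KCl/Mg(OAc)2 buffer. Exponential fits to normalised per-tile medians gave kobs, and weighted Michaelis–Menten fits gave kcat and KM.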
# glucosamine-6-phosphate [2] = variants of: B1; experiment: KM; higher = weaker cofactor use; RNA array
# Procedure, shortened: as §1
# glucosamine-6-phosphate [3] = variants of: B1; experiment: self-cleavage kobs at 40 uM GlcN6P; higher = faster cleavage; RNA array
# Procedure, shortened: as §1
# glucosamine-6-phosphate [4] = variants of: B1; experiment: self-cleavage kobs at 160 uM GlcN6P; higher = faster cleavage; RNA array
# Procedure, shortened: as §1
# glucosamine-6-phosphate [5] = variants of: B1; experiment: self-cleavage kobs at 640 uM GlcN6P; higher = faster cleavage; RNA array
# Procedure, shortened: as §1
# glucosamine-6-phosphate [6] = variants of: B1; experiment: self-cleavage kobs at 2500 uM GlcN6P; higher = faster cleavage; RNA array
# Procedure, shortened: as §1
# glucosamine-6-phosphate [7] = variants of: B1; experiment: self-cleavage kobs at 10000 uM GlcN6P; higher = faster cleavage; RNA array
# Procedure, shortened: as §1
Variant,kcat (glucosamine-6-phosphate [1]) [s⁻¹],KM (glucosamine-6-phosphate [2]) [µM],self-cleavage kobs at 40 uM GlcN6P (glucosamine-6-phosphate [3]) [s⁻¹],self-cleavage kobs at 160 uM GlcN6P (glucosamine-6-phosphate [4]) [s⁻¹],self-cleavage kobs at 640 uM GlcN6P (glucosamine-6-phosphate [5]) [s⁻¹],self-cleavage kobs at 2500 uM GlcN6P (glucosamine-6-phosphate [6]) [s⁻¹],self-cleavage kobs at 10000 uM GlcN6P (glucosamine-6-phosphate [7]) [s⁻¹]
A14G U65A,0.0124 ± 0.0022,3350 ± 800,0.000169 ± 1.9e-05,0.000424 ± 8.6e-05,0.00213 ± 0.00035,0.00492 ± 0.00087,0.0094 ± 0.00098
C11U A12U G32A,0.000169 ± 4.7e-05,–,–,–,–,0.000124 ± 3.5e-05,0.00013 ± 2.5e-05
G32C A42G,0.000211 ± 3.7e-05,–,–,–,–,3.92e-05 ± 9.5e-06,0.000103 ± 1.3e-05
C11U A15U,0.000594 ± 3.8e-05,1540 ± 230,–,4.54e-05 ± 1.7e-05,0.000178 ± 2.4e-05,0.000375 ± 5.4e-05,0.000511 ± 4.5e-05
U30A G41C,4.61e-05 ± 3.9e-06,5270 ± 1100,< 1e-05,–,–,–,–
U65C C70G,1.37e-05 ± 3.9e-06,–,–,–,–,–,–
C16A G40U,9.3e-05 ± 2.3e-05,–,–,–,4.49e-05 ± 1.2e-05,0.000122 ± 1.6e-05,7.36e-05 ± 1.2e-05
C67G C68G,4.53e-05 ± 9.2e-06,–,–,6.2e-05 ± 7.7e-06,5.01e-05 ± 6.5e-06,3.7e-05 ± 4.7e-06,–
G9A G13U,< 1e-05,–,–,–,–,< 1e-05,< 1e-05
A15U U69C,0.000652 ± 0.00018,1120 ± 510,5.12e-05 ± 1.2e-05,8.72e-05 ± 1.3e-05,0.000203 ± 2.7e-05,0.000443 ± 7.7e-05,0.000677 ± 0.00011
G60A G66C,< 1e-05,–,–,–,< 1e-05,< 1e-05,< 1e-05
C11G C61U,< 1e-05,–,< 1e-05,< 1e-05,–,< 1e-05,< 1e-05
A6G A14C,0.000105 ± 2.8e-06,2620 ± 210,–,–,–,5.24e-05 ± 8.1e-06,8.29e-05 ± 7.7e-06
A52C C70A,1.34e-05 ± 4e-06,–,–,–,–,–,–
U45C U55A,0.00681 ± 0.0026,5900 ± 2800,5.89e-05 ± 1.4e-05,–,0.000581 ± 0.00013,0.00182 ± 0.00067,0.00457 ± 0.0012
A14G G40U,0.00991 ± 0.0013,1350 ± 250,0.000302 ± 4.1e-05,0.00117 ± 0.00023,0.00267 ± 0.00043,0.00713 ± 0.0011,0.00879 ± 0.0013
C11A C67A,6.14e-05 ± 1e-05,–,–,–,7.25e-05 ± 1.2e-05,6.18e-05 ± 1.1e-05,5.12e-05 ± 9.8e-06

Variant,kcat (glucosamine-6-phosphate [1]) [s⁻¹],KM (glucosamine-6-phosphate [2]) [µM],self-cleavage kobs at 40 uM GlcN6P (glucosamine-6-phosphate [3]) [s⁻¹],self-cleavage kobs at 160 uM GlcN6P (glucosamine-6-phosphate [4]) [s⁻¹],self-cleavage kobs at 640 uM GlcN6P (glucosamine-6-phosphate [5]) [s⁻¹],self-cleavage kobs at 2500 uM GlcN6P (glucosamine-6-phosphate [6]) [s⁻¹],self-cleavage kobs at 10000 uM GlcN6P (glucosamine-6-phosphate [7]) [s⁻¹]
A15G U30C,0.0225 ± 0.0031,871 ± 170,0.00107 ± 0.00018,0.00315 ± 0.00047,0.0102 ± 0.0015,0.0197 ± 0.005,0.0186 ± 0.0045
C16A U31G C70U,0.00025 ± 1.3e-05,351 ± 54,–,7.99e-05 ± 2.2e-05,0.000157 ± 3e-05,0.000242 ± 6.1e-05,0.000235 ± 4.9e-05
G13C C70G,2.09e-05 ± 5.8e-06,–,–,–,–,–,–
G32C A52U,< 1e-05,–,< 1e-05,–,–,–,–
U30G U65G,0.00191 ± 0.00048,3590 ± 1400,–,8.07e-05 ± 1.4e-05,0.000378 ± 6e-05,0.000614 ± 0.0001,0.00155 ± 0.00019
A12G A14U,0.000731 ± 0.0002,5700 ± 2200,–,–,8.27e-05 ± 8e-06,0.000195 ± 1.9e-05,0.000524 ± 6.4e-05
U45A A53U,0.054 ± 0.013,1720 ± 500,0.00125 ± 0.00017,0.00351 ± 0.0016,0.0162 ± 0.0071,0.0671 ± 0.03,0.0432 ± 0.012
G37C C67U,2.86e-05 ± 3.3e-06,–,–,–,–,2.85e-05 ± 1e-05,–
G29U G41U,8.68e-05 ± 1.2e-05,651 ± 270,–,–,5.08e-05 ± 1.6e-05,6.65e-05 ± 2.9e-05,7.94e-05 ± 2.1e-05
A42U A64G,0.000148 ± 1.7e-05,1930 ± 650,–,–,3.08e-05 ± 7.7e-06,0.000102 ± 1.3e-05,0.00012 ± 1.1e-05
G51A C70G,3.48e-05 ± 7.3e-06,–,–,–,–,–,–
G37A G40U,0.000159 ± 2e-05,2050 ± 490,–,–,3.99e-05 ± 7.5e-06,8.45e-05 ± 9.3e-06,0.000151 ± 4.4e-05
C68U C71U,0.000142 ± 7.2e-06,1240 ± 180,–,–,4.62e-05 ± 4.3e-06,0.000103 ± 7.4e-06,0.000123 ± 6.6e-06
U57G C71G,2.02e-05 ± 3.8e-06,–,–,–,–,–,–
U30G U56G,0.00526 ± 0.0018,–,0.000182 ± 3.7e-05,–,0.00189 ± 0.00062,0.00266 ± 0.00073,0.00705 ± 0.0016
A14C A39U,0.00308 ± 0.00063,2440 ± 670,6.46e-05 ± 6.9e-06,0.000162 ± 1.9e-05,0.000605 ± 6.5e-05,0.00174 ± 0.00021,0.00242 ± 0.00026
